These are literature values, as cited in patent US20110218118A1, “PEPTIDE MODULATORS OF CELLULAR PHENOTYPE AND BI-NUCLEIC ACID FRAGMENT LIBRARY” (PHYLOGICA LIMITED, priority 2004, published 2011).

The target in this data set is T1, human cyclin E (Homo sapiens, UniProt P24864).
T1 construct: expressed in transfected cells; host or cells: Saccharomyces cerevisiae strain AZ-1 (huCDK2::his2), mated with PRT 51
Conditions: yeast over-expressing human cyclin E and co-expressing human Cdk2.

T1 sequence (P24864 16-410): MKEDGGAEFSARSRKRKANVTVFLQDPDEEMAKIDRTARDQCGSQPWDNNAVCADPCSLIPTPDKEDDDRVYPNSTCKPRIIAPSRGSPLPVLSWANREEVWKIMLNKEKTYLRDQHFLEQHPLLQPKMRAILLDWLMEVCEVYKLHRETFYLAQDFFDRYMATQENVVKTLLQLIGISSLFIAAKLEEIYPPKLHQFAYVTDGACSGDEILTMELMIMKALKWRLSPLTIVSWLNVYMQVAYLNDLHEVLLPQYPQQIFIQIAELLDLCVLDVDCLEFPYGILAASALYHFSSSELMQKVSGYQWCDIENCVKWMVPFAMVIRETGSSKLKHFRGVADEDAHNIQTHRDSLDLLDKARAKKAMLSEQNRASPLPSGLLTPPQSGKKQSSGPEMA

Take “p21^CIP1: positive control protein, cDNA (SEQ ID NO: 60) cloned as in-frame fusion into the pMF4-5 plasmid”: the “rescue of the cyclin E lethal phenotype in yeast” value is listed as “rescue the lethal phenotype in yeast”.
